# Values of other authors, collected in patent publication EP3906935A1, “PEPTIDES FOR PREVENTING OR TREATING VIRAL INFECTIONS” (SORBONNE UNIVERSITE, priority 2020, dated 2021).
# Settings: N- and C-protected peptide; experimental data reported by Zhou et al.
substance,measurement,value
"Ac-EAEKAAKEAEKAAKEAEK-NH2 [SEQ ID NO: 146, peptide of eighteen residues with N- and C-protected extremities previously built by Zhou et al]",content of amphipathic helical structure in solution,65%
